Data reported in patent US20110091994A1, “Methods for Screening Compounds for Treating and/or Preventing an Hepatitis C Virus Infection” (priority 2008, published 2011).

B1: TMEM63B (protein, UniProt Q5T3F8 1-832, looked up)
Mechanosensitive cation …: MLPFLLATLGTTALNNSNPKDYCYSARIRSTVLQGLPFGGVPTVLALDFMCFLALLFLFSILRKVAWDYGRLALVTDADRLRRQERDRVEQEYVASAMHGDSHDRYERLTSVSSSVDFDQRDNGFCSWLTAIFRIKDDEIRDKCGGDAVHYLSFQRHIIGLLVVVGVLSVGIVLPVNFSGDLLENNAYSFGRTTIANLKSGNNLLWLHTSFAFLYLLLTVYSMRRHTSKMRYKEDDLVKRTLFINGISKYAESEKIKKHFEEAYPNCTVLEARPCYNVARLMFLDAERKKAERGKLYFTNLQSKENVPTMINPKPCGHLCCCVVRGCEQVEAIEYYTKLEQKLKEDYKREKEKVNEKPLGMAFVTFHNETITAIILKDFNVCKCQGCTCRGEPRPSSCSESLHISNWTVSYAPDPQNIYWEHLSIRGFIWWLRCLVINVVLFILLFFLTTPAIIITTMDKFNVTKPVEYLNNPIITQFFPTLLLWCFSALLPTIVYYSAFFEAHWTRSGENRTTMHKCYTFLIFMVLLLPSLGLSSLDLFFRWLFDKKFLAEAAIRFECVFLPDNGAFFVNYVIASAFIGNAMDLLRIPGLLMYMIRLCLARSAAERRNVKRHQAYEFQFGAAYAWMMCVFTVVMTYSITCPIIVPFGLMYMLLKHLVDRYNLYYAYLPAKLDKKIHSGAVNQVVAAPILCLFWLLFFSTMRTGFLAPTSMFTFVVLVITIVICLCHVCFGHFKYLSAHNYKIEHTETDTVDPRSNGRPPTAAAVPKSAKYIAQVLQDSEVDGDGDGAPGSSGDEPPSSSSQDEELLMPPDALTDTDFQSCEDSLIENEIHQ
B2: UBE1C (protein, UniProt Q8TBC4 2-463, looked up)
NEDD8-activating enzyme E1 …: ADGEEPEKKRRRIEELLAEKMAVDGGCGDTGDWEGRWNHVKKFLERSGPFTHPDFEPSTESLQFLLDTCKVLVIGAGGLGCELLKNLALSGFRQIHVIDMDTIDVSNLNRQFLFRPKDIGRPKAEVAAEFLNDRVPNCNVVPHFNKIQDFNDTFYRQFHIIVCGLDSIIARRWINGMLISLLNYEDGVLDPSSIVPLIDGGTEGFKGNARVILPGMTACIECTLELYPPQVNFPMCTIASMPRLPEHCIEYVRMLQWPKEQPFGEGVPLDGDDPEHIQWIFQKSLERASQYNIRGVTYRLTQGVVKRIIPAVASTNAVIAAVCATEVFKIATSAYIPLNNYLVFNDVDGLYTYTFEAERKENCPACSQLPQNIQFSPSAKLQEVLDYLTNSASLQMKSPAITATLEGKNRTLYLQSVTSIEERTRPNLSKTLKELGLVDGQELAVADVTTPQTVLFKLHFTS

Experiments:
[1] = tested on: HCV ORFs (Gal4-DB fusions); type: binding, HCV genotype 1b, isolate con1; conditions: human protein listed by gene symbol; the value names the HCV protein it interacts with
[2] = target: T1, HCV ORFs (Gal4-DB fusions) (Hepatitis C virus genotype 1b, UniProt Q9WMX2); type: binding, HCV genotype 1b, isolate con1; conditions: HCV protein NS3 as bait; human protein as prey
T1 construct: expressed in transfected cells; host or cells: Saccharomyces cerevisiae MAV203 (IMAP1) / AH109 (IMAP2)
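Note: yeast two-hybrid screens using HCV genotype 1b proteins fused to Gal4-DB as baits against prey cDNA libraries from human spleen and foetal brain, IMAP1 via transformation and IMAP2 via mating.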

T1 sequence (Q9WMX2 1027-1657): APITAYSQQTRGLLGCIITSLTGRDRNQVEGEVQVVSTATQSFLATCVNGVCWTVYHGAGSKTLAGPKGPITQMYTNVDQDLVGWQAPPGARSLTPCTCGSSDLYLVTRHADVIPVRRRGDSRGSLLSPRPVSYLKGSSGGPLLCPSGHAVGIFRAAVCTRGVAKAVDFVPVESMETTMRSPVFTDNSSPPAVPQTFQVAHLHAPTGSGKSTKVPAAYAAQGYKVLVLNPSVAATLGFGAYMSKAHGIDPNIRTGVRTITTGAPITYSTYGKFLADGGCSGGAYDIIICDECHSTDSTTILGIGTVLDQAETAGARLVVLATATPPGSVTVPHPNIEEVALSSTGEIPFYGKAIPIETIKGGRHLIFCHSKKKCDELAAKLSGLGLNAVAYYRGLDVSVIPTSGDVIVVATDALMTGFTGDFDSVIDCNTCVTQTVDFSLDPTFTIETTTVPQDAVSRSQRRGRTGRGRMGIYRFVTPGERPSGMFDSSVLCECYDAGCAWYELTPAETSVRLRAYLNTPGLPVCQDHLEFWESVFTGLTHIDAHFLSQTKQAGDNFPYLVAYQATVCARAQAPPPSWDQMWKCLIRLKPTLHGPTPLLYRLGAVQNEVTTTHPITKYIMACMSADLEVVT

Molecule | Interaction with viral protein [1] | IMAP Y2H IMAP2 (number of IST) [2]
B1 | NS3 | 1
B2 | NS3 | 1
